The source of these data is article PMC3858243, “Escherichia coli Ribosomal Protein S1 Unfolds Structured mRNAs Onto the Ribosome for Active Translation Initiation”.

What all share (assay): EMSA; Not given in the material for EMSA, SPR and filter binding (buffer with monovalent ions and MgCl2; RNA renatured 90°C 1 min, ice, then 25°C 30 min)
Series [1] addresses ribosomal protein S1 wild type (Escherichia coli, UniProt P0AG67 1-557).
The next series has as its target S1Δ3-6 (Escherichia coli, UniProt P0AG67 1-170). The following applies: protein: recombinant; tags: C-terminal His6; label: 5' 32P; pseudoknot.
In another series the target is S1Δ4-6 (Escherichia coli, UniProt P0AG67 1-279). The following applies: protein: recombinant; tags: C-terminal His6; label: 5' 32P; pseudoknot.

B1: mut-psk-rpsOSD (structured_RNA)
RNA: GGGAUCGCUGAAUUAGAGAUCGGCGUCCUUUCAUUCUAUAUAGUAAGGAGGUUAAAAUGUCUCUAAGU
Take B1: in series [1], the “apparent K (half saturation)” value is around 447 nM. In addition, the binding result in the series with S1Δ3-6 is given as “no binding”. Also, in the series with S1Δ4-6, the binding signal was 5 fold weaker than WT S1.
